The results in this text go back to patent US20130131322A1.

The test concerns the target EGFR on A431 cells (human) (UniProt P00533). Nature of the test: cell-based or functional assay.

Regarding “anti-EGFR antibody (clone 225: the original antibody of cetuximab, Calbiochem)”, the inhibition of EGFR phosphorylation in A431 cells was 40%.
